Experimental data from paper PMC12148588 (2025).
Where two headings read alike, the source gives them in different places.

Assays:
[1] = molecular target: T1, SARS-CoV-2 RBD of the Wuhan strain (Acro Biosystems SPD-C82E9-25) (SARS-CoV-2, UniProt P0DTC2); assay: SPR
[2] = molecular target: T1, SARS-CoV-2 RBD of the Wuhan strain …; assay: SPR; remark: listed apart in the source

Binder	Kd [1]	Kd [2]
MB043_CL39 (antibody, V domains shown) VH: EVQLVETGGGLIHPGGSLRLSCAASEFIVSYNYMSWVRQAPGKGLEWVSVIYSGGSTFYADAVKGRFTISRDSSKNTLDLLMNSLRVEDTAVYYCARVLPSNTDYFDYWGQGILVTVSS VL: QSVLTQPPSVSGATGQRVTISCTGSNSNIGAGSDVHWYQQLPGAAPKLLIYVNNNRPSGVPDRFSGSKSGTSASLAITGLQAEDEADYYCQSYDSSLSGYVFGTGTKVTVL	0.0273 nM	–
MB027_D06L (antibody, V domains shown) VH: EVQLVETGGGLIQPGGSLRLSCAASGFIVSSNYMSWVRQAPGKGLEWVSIIYSGGSTFYADAVKGRFTISRDNSKNTLDLQMNSLRAEDTAVYYCARVLPTSTDYFDYWGQGILVTVSS VL: QSVLTQPPSVSGAPGQRVTISCTGSNSNIGAGSDVHWYQHLPGTAPTLLIYSNSNRPSGVPDRFSGSKSGTSASLAITGLQAEDEADYYCQSYDSSLSTYVFGTGTKVTVL	7.17 nM	–
MB025_A09L (antibody, V domains shown) VH: EVQLVESGGGLVQPGGSLRLSCAASGFSVSIFYMNWVRQAPGKGLEWVSSVYSGETTYYADSVRGRFTISRDNSKSTLYLQMNSLRPEDTAVYYCARGVDYRTNRTEGGAFDIWGQGTMVTVSS VL: QSALTQPASVSGSPGQSIPISCTGTSSDFGNYNLISWYQQHPGKAPKLMIYEGTKRPSGVSDRFSGSKSANTASLTISGLQAEDEADYYCCSYAGSSTWMFGGGTKLTVL	–	0.00491 nM
MB025_A07K (antibody, V domains shown) VH: EVQLVESGGDLVQPGGSLRLSCAASEFIVSSNYMSWVRQTPGKGLEWISVLYSGGSTFYADSVKGRFTISRDNSKNTLYLQMNSLRVEDTAVYYCARDFGEFWFDYWGQGTLVTVSS VL: EIVLTQSPGTLSLSPGERATLSCRASQTINSYLAWYQQKPGQAPRLLIYGASSRATGIPDRFSGSGSGTDFTLTISRLEPEDFAVYYCQQYGNSPRTFGQGTKVEIK	–	0.159 nM
